Reference: patent US20240050583A1 (HARBOUR BIOMED SHANGHAI, published 2024)
Substitutions are numbered along the chain they refer to.

T1: human BCMA (human, UniProt Q02223 1-184)
T1 construct: whole, on cells; also called hBCMA; tumor necrosis factor receptor superfamily member 17
T1 sequence (looked up): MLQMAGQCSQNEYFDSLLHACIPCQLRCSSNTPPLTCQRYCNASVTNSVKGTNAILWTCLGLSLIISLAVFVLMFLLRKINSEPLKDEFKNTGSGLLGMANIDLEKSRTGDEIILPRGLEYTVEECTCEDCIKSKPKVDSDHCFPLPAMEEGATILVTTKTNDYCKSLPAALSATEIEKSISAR

T2: human CTLA4 (human, UniProt P16410 36-223)
T2 construct: whole, on cells; HEK293T cell strain HEK293/hCTLA4 highly expressing human CTLA4 (constructed by Harbour BioMed); also called hCTLA4; CD152
T2 sequence (looked up): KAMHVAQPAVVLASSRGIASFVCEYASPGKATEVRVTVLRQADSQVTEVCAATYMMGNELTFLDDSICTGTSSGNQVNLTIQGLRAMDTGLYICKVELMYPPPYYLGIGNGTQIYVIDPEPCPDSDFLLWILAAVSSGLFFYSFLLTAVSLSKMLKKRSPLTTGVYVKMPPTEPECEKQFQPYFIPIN

B1: PR005744-ADC (bispecific antibody, human IgG1, kappa)
chain 1: QVQLVESGGGVVQPGRSLRLSCAATGFTFSSYGMYWVRQAPGKGLEWVAAIWNDGSNNYYADSVKGRFTISRDDSKNTLNLQMNSLRAEDTAMYYCARDRLPMASLRYFDWLGVMDAWGQGTSVTVSSASTKGPSVFPLAPSSKSTSGGTAALGCLVKDYFPEPVTVSWNSGALTSGVHTFPAVLQSSGLYSLSSVVTVPSSSLGTQTYICNVNHKPSNTKVDKKVEPKSC
chain 2: not shown
modifications: mc-vc-PAB-MMAE coupled to Cys-220 (Eu numbering) of the linker peptide (99.07% of the site coupled)
notes: Coupling product of PR005744 with mc-vc-PAB-MMAE; also called coupling product PR005744-ADC
B2: HCAb PR004433 (antibody, human IgG1, V domains shown)
VH: EVQLVETGGGLIQPGGSLRLSCAASGFTVSDSYMTWVRQAPGKGLEWVSVIFSGGRTYYSDSVKGRFTISRDNAKNTLYLQMNSLRAEDTALYYCARRNYDDTRGTDVFDIWGQGTMVTVSS
notes: also called PR001046_R2_4G10; anti-BCMA HCAb antibody PR004433
B3: PR006031 (antibody, V domains shown)
VH: B2 VH
notes: also called PR004433 variant molecule; Hinge3_5
B4: PR006042 (antibody, V domains shown)
VH: B2 VH
notes: also called PR004433 variant molecule; Hinge6_18
B5: PR006036 (antibody, V domains shown)
VH: B2 VH
notes: also called PR004433 variant molecule; Hinge4_15
B6: PR006314 (antibody, V domains shown)
VH: B2 VH
notes: also called PR004433 variant molecule; Hinge8_18
B7: HCAb PR006468 (antibody, V domains shown)
VH: B2 VH
B8: PR006319 (antibody, V domains shown)
VH: B2 VH
notes: also called PR004433 variant molecule; Hinge10_3
B9: PR006316 (antibody, V domains shown)
VH: B2 VH
notes: also called PR004433 variant molecule; Hinge9_5
B10: PR006468-ADC (antibody, V domains shown)
VH: B2 VH
modifications: mc-vc-PAB-MMAE coupled to Cys1 (first cysteine) of the mouse IgG2c hinge region (90.8% of the site coupled)
notes: Purified coupling product of PR006468 with mc-vc-PAB-MMAE, DAR=2 component 95.5%; also called coupling product PR006468-ADC
B11: PR004433-PROTAC (antibody, human IgG1, V domains shown)
VH: B2 VH
modifications: BRD4 protein degrading agent (PROTAC GNE-987 with a disulfide-containing linker) coupled by a disulfide bond to cysteine, Cys-220 site (Eu numbering) as the filing aims
notes: Coupling product without HIC purification; DAR=2 component 66.4%, naked antibody 28.4%; also called coupling product PR004433-PROTAC
B12: PR006310 (antibody, V domains shown)
VH: B2 VH
notes: also called PR004433 variant molecule; Hinge7_2
B13: PR006039 (antibody, V domains shown)
VH: B2 VH
notes: also called PR004433 variant molecule; Hinge5_13
B14: PR006041 (antibody, V domains shown)
VH: B2 VH
notes: also called PR004433 variant molecule; Hinge6_15
B15: PR006038 (antibody, V domains shown)
VH: B2 VH
notes: also called PR004433 variant molecule; Hinge5_12
B16: PR006035 (antibody, V domains shown)
VH: B2 VH
notes: also called PR004433 variant molecule; Hinge4_6
B17: PR006032 (antibody, V domains shown)
VH: B2 VH
notes: also called PR004433 variant molecule; Hinge3_6
B18: PR006037 (antibody, V domains shown)
VH: B2 VH
notes: also called PR004433 variant molecule; Hinge5_2
B19: PR006313 (antibody, V domains shown)
VH: B2 VH
notes: also called PR004433 variant molecule; Hinge8_8
B20: PR006033 (antibody, V domains shown)
VH: B2 VH
notes: also called PR004433 variant molecule; Hinge3_18
B21: PR001046-ADC (antibody, human IgG1, V domains shown)
VH: B2 VH with S32N, R56N, S60A
modifications: mc-vc-PAB-MMAE coupled mainly to the cysteine at site 127 (Cys-220 according to Eu numbering)
notes: Purified coupling product of HCAb PR001046 with mc-vc-PAB-MMAE, main component DAR=2; also called coupling product PR001046-ADC
B22: PR006040 (antibody, V domains shown)
VH: B2 VH
notes: also called PR004433 variant molecule; Hinge6_4
B23: PR006317 (antibody, V domains shown)
VH: B2 VH
notes: also called PR004433 variant molecule; Hinge9_7
B24: HCAb PR001046 (antibody, human IgG1, V domains shown)
VH: B2 VH with S32N, R56N, S60A
notes: Fully human heavy-chain-only antibody with human IgG1 hinge and Fc; also called 1005P63B7; anti-BCMA HCAb antibody PR001046
B25: PR006034 (antibody, V domains shown)
VH: B2 VH
notes: also called PR004433 variant molecule; Hinge4_1
B26: PR006312 (antibody, V domains shown)
VH: B2 VH
notes: also called PR004433 variant molecule; Hinge7_19
B27: PR006315 (antibody, V domains shown)
VH: B2 VH
notes: also called PR004433 variant molecule; Hinge8_20
B28: PR006320 (antibody, V domains shown)
VH: B2 VH
notes: also called PR004433 variant molecule; Hinge10_5
B29: PR006321 (antibody, V domains shown)
VH: B2 VH
notes: also called PR004433 variant molecule; Hinge10_7
B30: PR006318 (antibody, V domains shown)
VH: B2 VH
notes: also called PR004433 variant molecule; Hinge9_14
B31: HCAb PR000020 (antibody, human IgG1, V domains shown)
VH: EVQLVETGGGLIQPGGSLRLSCAASGLNVSRHYLSWVRQAPGKGLEWVAVIYSGGGIEYVDSVKGRFTISRDNANNTLYLQMRSLRTEDSAVYYCARAIPRPHGSDIWGQGTMVTVSS
notes: Fully human heavy-chain-only antibody (VH, human IgG1 hinge, CH2, CH3), dimer of two heavy chains, no light chain; also called CL24; anti-CTLA4 HCAb antibody PR000020
B32: PR000020-ADC (antibody, human IgG1, V domains shown)
VH: B31 VH
modifications: mc-vc-PAB-MMAE coupled to C124 (Cys-220 according to Eu numbering)
notes: Purified coupling product of HCAb PR000020 with mc-vc-PAB-MMAE, main component DAR=2; also called coupling product PR000020-ADC

Legend:
human BCMA [1] = molecular target: T1, human BCMA; assay: flow cytometry (FACS) on NCI-H929 cells
human BCMA [2] = molecular target: T1, human BCMA; assay: flow cytometry (FACS) on HEK293T-hBCMA cells
human CTLA4 = molecular target: T2, human CTLA4; assay: flow cytometry (FACS) on HEK293/hCTLA4 cells
Method: The binding ability of the antibody molecules to an HEK293T cell strain HEK293/hCTLA4 (constructed by Harbour BioMed) highly expressing human CTLA4 and other cells was determined by flow cytometry FACS. Specifically, the HEK293/hCTLA4 cells were digested and resuspended in a DMEM medium, with the cell density adjusted to 1×10⁶ cells/mL. HEK293 cells not expressing CTLA4 were used as a negative control. Thereafter, the cells were seeded in a 96-well V-bottom plate (Corning, #3894) at 100 μL/well and centrifuged at 4° C. for 5 min, and the supernatant was discarded. Then, the serially diluted antibody molecules were added to the 96-well plate at 100 μL/well, and the mixtures were well mixed. […]
Then, the cells in each well were rinsed twice with 100 μL of pre-cooled FACS buffer (PBS buffer containing 0.5% BSA) and centrifuged at 500 g at 4° C. for 5 min, and then the supernatant was discarded. […] Fluorescence signal values were read using a BD FACS CANTOII flow cytometer, and the data were processed and analyzed using FlowJo v10 (FlowJo, LLC) software. The data were processed and analyzed by plotting using GraphPad Prism 8 software, and binding curves of the antibodies to target cells, EC₅₀ values and other parameters were obtained through four-parameter nonlinear fitting.

Binder	binding result (human BCMA [1])	also measured
B1	binds	–
B2	binds	–
B3	binds	–
B4	binds	–
B5	binds	–
B6	binds	–
B7	binds	–
B8	binds	–
B9	binds	–
B10	binds	–
B11	binds	–
B12	binds	–
B13	binds	–
B14	binds	–
B15	binds	–
B16	binds	–

Binder	binding result (human BCMA [1])	also measured
B17	binds	–
B18	binds	–
B19	binds	–
B20	binds	–
B21	–	binding result (human BCMA [2]): binds
B22	binds	–
B23	binds	–
B24	–	binding result (human BCMA [2]): binds
B25	binds	–
B26	binds	–
B27	binds	–
B28	binds	–
B29	binds	–
B30	binds	–
B31	–	binding result (human CTLA4): binds
B32	–	binding result (human CTLA4): binds
